From paper PMC11260492 come the findings set out here.

This data set has as its target RPA (native, unlabeled heterotrimer) (human, UniProt P27694;P15927;P35244 1-616;1-270;1-121). The data set can be described thus: FRET equilibrium titration.

Chain of RPA (native, unlabeled heterotrimer) (P27694 whole entry, chain 1 of 3): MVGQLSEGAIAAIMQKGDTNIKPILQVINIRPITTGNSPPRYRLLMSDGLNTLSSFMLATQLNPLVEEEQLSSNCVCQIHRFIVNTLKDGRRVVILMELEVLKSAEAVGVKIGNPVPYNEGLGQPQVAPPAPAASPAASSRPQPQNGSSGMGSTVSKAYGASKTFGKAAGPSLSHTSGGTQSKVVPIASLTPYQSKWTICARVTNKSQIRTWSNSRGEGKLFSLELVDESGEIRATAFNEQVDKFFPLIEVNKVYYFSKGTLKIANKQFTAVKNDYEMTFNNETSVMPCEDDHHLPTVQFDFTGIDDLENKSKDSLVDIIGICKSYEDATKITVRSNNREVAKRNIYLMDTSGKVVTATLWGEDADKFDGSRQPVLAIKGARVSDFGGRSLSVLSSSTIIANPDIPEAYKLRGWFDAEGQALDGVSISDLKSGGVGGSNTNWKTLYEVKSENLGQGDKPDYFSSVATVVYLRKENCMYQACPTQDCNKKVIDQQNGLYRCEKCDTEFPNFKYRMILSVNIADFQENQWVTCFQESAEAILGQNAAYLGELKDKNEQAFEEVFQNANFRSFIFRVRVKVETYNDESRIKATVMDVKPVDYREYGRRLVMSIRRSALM
Chain of RPA (native, unlabeled heterotrimer) (P15927 whole entry, chain 2 of 3): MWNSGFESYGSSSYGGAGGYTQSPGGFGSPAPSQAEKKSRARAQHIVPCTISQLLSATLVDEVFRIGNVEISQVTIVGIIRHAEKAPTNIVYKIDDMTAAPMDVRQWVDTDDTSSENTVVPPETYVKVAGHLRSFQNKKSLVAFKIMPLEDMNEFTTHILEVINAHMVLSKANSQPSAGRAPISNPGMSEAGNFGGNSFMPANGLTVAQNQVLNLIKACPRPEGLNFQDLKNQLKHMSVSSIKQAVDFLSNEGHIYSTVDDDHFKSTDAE
Chain of RPA (native, unlabeled heterotrimer) (P35244 whole entry, chain 3 of 3): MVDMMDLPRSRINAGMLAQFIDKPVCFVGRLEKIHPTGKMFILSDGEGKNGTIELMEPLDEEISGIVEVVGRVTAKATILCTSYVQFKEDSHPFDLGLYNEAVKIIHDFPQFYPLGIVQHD

B1: poly(dT)30-FRET (ssDNA)
DNA: TTTTTTTTTTTTTTTTTTTTTTTTTTTTTT
Consider B1, for which the binding result was “binds”.
